# Test results from IntAct's records for PubMed 32296183.
# B1: Catenin alpha-3 (Homo sapiens), Q9UI47-2 (parent)
# chain: MSAETPITLNIDPQDLQVQTFTVEKLLEPLIIQVTTLVNCPQNPSSRKKGRSKRASVLLASVEEATWNLLDKGEKIAQEATVLKDELTASLEEVRKESEALKVSAERFTDDPCFLPKREAVVQAARALLAAVTRLLILADMIDVMCLLQHVSAFQRTFESLKNVANKSDLQKTYQKLGKELENLDYLAFKRQQDLKSPNQRDEIAGARASLKENSPLLHSICSACLEHSDVASLKASKDTVCEEIQNALNVISNASQGIQNMTTPPEPQAATLGSALDELENLIVLNPLTVTEEEIRPSLEKRLEAIISGAALLADSSCTRDLHRERIIAECNAIRQALQDLLSEYMNNAGKKERSNTLNIALDNMCKKTRDLRRQLRKAIIDHVSDSFLDTTVPLLVLIEAAKNGREKEIKEYAAIFHEHTSRLVEVANLACSMSTNEDGIKIVKIAANHLETLCPQIINAALALAARPKSQAVKNTMEMYKRTWENHIHVLTEAVDDITSIDDFLAVSGMFLFF
# partner: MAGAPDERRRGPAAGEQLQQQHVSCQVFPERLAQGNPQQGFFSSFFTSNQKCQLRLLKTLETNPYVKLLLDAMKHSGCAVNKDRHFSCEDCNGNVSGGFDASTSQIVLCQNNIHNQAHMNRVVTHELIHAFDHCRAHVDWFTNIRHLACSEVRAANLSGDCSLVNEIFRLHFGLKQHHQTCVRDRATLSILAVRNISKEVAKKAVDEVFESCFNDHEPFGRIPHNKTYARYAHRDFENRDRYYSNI
# B2: Transmembrane protein 43 (Homo sapiens), Q9BTV4 (parent)
# chain: MAANYSSTSTRREHVKVKTSSQPGFLERLSETSGGMFVGLMAFLLSFYLIFTNEGRALKTATSLAEGLSLVVSPDSIHSVAPENEGRLVHIIGALRTSKLLSDPNYGVHLPAVKLRRHVEMYQWVETEESREYTEDGQVKKETRYSYNTEWRSEIINSKNFDREIGHKNPSAMAVESFMATAPFVQIGRFFLSSGLIDKVDNFKSLSLSKLEDPHVDIIRRGDFFYHSENPKYPEVGDLRVSFSYAGLSGDDPDLGPAHVVTVIARQRGDQLVPFSTKSGDTLLLLHHGDFSAEEVFHRELRSNSMKTWGLRAAGWMAMFMGLNLMTRILYTLVDWFPVFRDLVNIGLKAFAFCVATSLTLLTVAAGWLFYRPLWALLIAGLALVPILVARTRVPAKKLE
# partner: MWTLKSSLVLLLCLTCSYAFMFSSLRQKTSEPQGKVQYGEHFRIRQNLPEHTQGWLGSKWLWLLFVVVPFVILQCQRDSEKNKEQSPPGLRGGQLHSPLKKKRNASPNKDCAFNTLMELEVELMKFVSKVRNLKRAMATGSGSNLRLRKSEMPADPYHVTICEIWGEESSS
# B3: Catenin alpha-3 (Homo sapiens), Q9UI47-2 (parent)
# chain: B1 chain
# partner: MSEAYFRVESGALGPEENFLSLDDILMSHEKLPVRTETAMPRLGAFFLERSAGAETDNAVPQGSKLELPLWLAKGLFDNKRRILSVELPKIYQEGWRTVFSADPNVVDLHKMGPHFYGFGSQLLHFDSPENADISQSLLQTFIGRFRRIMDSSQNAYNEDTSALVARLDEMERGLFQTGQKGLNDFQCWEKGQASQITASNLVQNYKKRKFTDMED
# B4: Very-long-chain enoyl-CoA reductase (Homo sapiens), Q9NZ01 (parent)
# chain: MKHYEVEILDAKTREKLCFLDKVEPHATIAEIKNLFTKTHPQWYPARQSLRLDPKGKSLKDEDVLQKLPVGTTATLYFRDLGAQISWVTVFLTEYAGPLFIYLLFYFRVPFIYGHKYDFTSSRHTVVHLACICHSFHYIKRLLETLFVHRFSHGTMPLRNIFKNCTYYWGFAAWMAYYINHPLYTPPTYGAQQVKLALAIFVICQLGNFSIHMALRDLRPAGSKTRKIPYPTKNPFTWLFLLVSCPNYTYEVGSWIGFAIMTQCLPVALFSLVGFTQMTIWAKGKHRSYLKEFRDYPPLRMPIIPFLL
# partner: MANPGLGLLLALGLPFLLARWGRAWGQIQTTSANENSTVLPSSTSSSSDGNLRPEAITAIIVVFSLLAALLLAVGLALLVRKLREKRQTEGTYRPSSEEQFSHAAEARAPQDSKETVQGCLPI
# B5: Very-long-chain enoyl-CoA reductase (Homo sapiens), Q9NZ01 (parent)
# chain: B4 chain
# B6: Very-long-chain enoyl-CoA reductase (Homo sapiens), Q9NZ01 (parent)
# chain: B4 chain
# partner: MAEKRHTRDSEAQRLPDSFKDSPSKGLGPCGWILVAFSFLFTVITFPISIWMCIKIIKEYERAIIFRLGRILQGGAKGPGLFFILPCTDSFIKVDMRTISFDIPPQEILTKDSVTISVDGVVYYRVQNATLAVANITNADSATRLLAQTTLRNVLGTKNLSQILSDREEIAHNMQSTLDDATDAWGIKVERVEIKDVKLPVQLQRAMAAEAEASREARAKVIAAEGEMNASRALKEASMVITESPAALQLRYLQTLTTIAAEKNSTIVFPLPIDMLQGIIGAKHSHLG
# B7: Golgi SNAP receptor complex member 2 (Homo sapiens), O14653 (parent)
# chain: MDPLFQQTHKQVHEIQSCMGRLETADKQSVHIVENEIQASIDQIFSRLERLEILSSKEPPNKRQNARLRVDQLKYDVQHLQTALRNFQHRRHAREQQERQREELLSRTFTTNDSDTTIPMDESLQFNSSLQKVHNGMDDLILDGHNILDGLRTQRLTLKGTQKKILDIANMLGLSNTVMRLIEKRAFQDKYFMIGGMLLTCVVMFLVVQYLT
# partner: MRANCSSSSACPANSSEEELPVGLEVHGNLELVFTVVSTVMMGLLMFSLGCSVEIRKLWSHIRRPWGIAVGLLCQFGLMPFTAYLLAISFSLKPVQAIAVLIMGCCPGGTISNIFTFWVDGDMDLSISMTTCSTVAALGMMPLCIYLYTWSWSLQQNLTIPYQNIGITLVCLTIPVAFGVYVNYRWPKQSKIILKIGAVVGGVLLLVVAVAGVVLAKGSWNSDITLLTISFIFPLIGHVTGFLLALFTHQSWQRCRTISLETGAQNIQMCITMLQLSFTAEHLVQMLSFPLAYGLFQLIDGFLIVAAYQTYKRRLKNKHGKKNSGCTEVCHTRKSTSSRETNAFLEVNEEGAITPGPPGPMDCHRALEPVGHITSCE
# B8: Golgi SNAP receptor complex member 2 (Homo sapiens), O14653 (parent)
# chain: B7 chain
# partner: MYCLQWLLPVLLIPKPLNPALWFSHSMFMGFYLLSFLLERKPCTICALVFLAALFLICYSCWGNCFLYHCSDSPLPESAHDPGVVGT
# B9: Very-long-chain enoyl-CoA reductase (Homo sapiens), Q9NZ01 (parent)
# chain: B4 chain
# partner: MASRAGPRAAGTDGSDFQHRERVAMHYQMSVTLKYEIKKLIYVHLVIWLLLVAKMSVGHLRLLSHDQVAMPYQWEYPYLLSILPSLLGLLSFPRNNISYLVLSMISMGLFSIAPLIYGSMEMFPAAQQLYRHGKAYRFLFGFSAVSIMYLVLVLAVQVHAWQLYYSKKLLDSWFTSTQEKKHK
# B10: Golgi SNAP receptor complex member 2 (Homo sapiens), O14653 (parent)
# chain: B7 chain
# partner: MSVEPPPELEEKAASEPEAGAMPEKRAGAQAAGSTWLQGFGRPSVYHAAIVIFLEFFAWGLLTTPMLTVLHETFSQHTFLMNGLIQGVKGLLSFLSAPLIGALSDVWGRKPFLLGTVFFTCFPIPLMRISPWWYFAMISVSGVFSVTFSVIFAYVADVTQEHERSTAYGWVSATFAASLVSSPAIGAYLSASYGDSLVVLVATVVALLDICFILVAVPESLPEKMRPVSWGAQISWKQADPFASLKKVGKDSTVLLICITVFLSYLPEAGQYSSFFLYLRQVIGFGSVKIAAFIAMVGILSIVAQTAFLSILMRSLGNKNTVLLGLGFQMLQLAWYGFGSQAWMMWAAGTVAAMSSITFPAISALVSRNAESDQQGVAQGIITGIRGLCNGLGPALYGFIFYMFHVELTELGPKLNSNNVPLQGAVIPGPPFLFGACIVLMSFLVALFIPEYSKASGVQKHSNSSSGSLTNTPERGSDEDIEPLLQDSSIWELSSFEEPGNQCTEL
# B11: Catenin alpha-3 (Homo sapiens), Q9UI47-2 (parent)
# chain: B1 chain
# partner: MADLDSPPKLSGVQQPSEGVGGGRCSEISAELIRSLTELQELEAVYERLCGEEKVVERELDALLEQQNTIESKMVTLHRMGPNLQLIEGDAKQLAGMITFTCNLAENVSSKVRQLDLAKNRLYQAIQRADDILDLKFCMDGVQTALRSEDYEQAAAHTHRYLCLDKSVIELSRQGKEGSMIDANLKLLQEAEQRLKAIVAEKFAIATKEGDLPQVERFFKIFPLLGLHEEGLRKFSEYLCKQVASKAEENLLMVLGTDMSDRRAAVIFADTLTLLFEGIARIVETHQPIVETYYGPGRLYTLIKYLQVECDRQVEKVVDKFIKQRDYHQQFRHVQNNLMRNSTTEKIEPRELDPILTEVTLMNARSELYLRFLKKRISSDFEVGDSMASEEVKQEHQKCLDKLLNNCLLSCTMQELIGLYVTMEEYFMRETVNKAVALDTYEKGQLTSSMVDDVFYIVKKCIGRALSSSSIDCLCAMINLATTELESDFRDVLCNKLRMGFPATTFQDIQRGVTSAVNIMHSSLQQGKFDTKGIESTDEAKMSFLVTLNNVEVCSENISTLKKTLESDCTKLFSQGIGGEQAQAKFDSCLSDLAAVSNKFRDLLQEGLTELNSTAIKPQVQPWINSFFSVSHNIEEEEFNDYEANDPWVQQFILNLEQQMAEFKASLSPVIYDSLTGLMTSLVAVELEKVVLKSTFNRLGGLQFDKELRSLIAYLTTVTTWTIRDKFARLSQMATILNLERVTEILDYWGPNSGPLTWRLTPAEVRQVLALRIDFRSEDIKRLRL
# B12: Golgi SNAP receptor complex member 2 (Homo sapiens), O14653 (parent)
# chain: B7 chain
# partner: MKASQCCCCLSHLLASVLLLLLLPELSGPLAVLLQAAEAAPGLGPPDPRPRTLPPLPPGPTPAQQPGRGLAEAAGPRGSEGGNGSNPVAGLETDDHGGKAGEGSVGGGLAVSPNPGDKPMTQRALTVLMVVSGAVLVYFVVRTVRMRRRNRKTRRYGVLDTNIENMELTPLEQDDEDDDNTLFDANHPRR
# Variants of: B1
# Details: with atp23_human ATP23, Q9Y6H3
row,Variant,effect of a mutation on the interaction
1,V94D,disrupting interaction strength

# Variants of: B2
# Details: with FAM209A
row,Variant,effect of a mutation on the interaction
1,R28W,with no effect
2,E85K,disrupting interaction strength
3,I91V,with no effect
4,E142K,disrupting interaction strength
5,Y371H,with no effect

# Variants of: B3
# Details: with psf3_human GINS3, Q9BRX5
row,Variant,effect of a mutation on the interaction
1,V94D,disrupting interaction strength

# Variants of: B4
# Details: with CRB3, Q9BUF7-2
row,Variant,effect of a mutation on the interaction
1,P182L,disrupting interaction strength

# Variants of: B5
# Details: with ergi3_human ERGIC3, Q9Y282
# ergi3_human ERGIC3, Q9Y282, sequence (Q9Y282 whole entry): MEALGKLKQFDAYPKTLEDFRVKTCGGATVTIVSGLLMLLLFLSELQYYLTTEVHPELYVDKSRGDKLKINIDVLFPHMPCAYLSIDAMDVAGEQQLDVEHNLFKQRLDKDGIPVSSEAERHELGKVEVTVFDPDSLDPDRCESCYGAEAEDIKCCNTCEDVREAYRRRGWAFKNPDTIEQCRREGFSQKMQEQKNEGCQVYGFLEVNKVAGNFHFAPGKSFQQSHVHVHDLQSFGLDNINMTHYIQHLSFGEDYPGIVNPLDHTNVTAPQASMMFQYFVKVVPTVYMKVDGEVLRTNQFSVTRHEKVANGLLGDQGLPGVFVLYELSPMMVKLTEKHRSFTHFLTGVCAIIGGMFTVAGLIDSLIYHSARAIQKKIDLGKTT
row,Variant,effect of a mutation on the interaction
1,P182L,disrupting interaction strength

# Variants of: B5
# Details: with cd79a_human CD79A
row,Variant,effect of a mutation on the interaction
1,P182L,disrupting interaction strength

# Variants of: B5
# Details: with MUC1, P15941-11
# MUC1, P15941-11, sequence (P15941 other isoform, or with tags, fused parts or gaps): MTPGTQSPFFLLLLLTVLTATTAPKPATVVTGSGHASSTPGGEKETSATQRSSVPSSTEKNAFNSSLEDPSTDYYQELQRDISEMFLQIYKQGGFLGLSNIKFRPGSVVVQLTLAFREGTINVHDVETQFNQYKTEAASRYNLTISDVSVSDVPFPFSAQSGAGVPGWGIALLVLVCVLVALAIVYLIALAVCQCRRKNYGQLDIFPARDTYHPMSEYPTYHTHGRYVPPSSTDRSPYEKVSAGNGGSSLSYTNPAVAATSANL
row,Variant,effect of a mutation on the interaction
1,P182L,disrupting interaction strength

# Variants of: B5
# Details: with ar13b_human ARL13B
row,Variant,effect of a mutation on the interaction
1,P182L,disrupting interaction strength

# Variants of: B5
# Details: with SLC7A14, Q8TBB6
# SLC7A14, Q8TBB6, sequence (Q8TBB6 whole entry): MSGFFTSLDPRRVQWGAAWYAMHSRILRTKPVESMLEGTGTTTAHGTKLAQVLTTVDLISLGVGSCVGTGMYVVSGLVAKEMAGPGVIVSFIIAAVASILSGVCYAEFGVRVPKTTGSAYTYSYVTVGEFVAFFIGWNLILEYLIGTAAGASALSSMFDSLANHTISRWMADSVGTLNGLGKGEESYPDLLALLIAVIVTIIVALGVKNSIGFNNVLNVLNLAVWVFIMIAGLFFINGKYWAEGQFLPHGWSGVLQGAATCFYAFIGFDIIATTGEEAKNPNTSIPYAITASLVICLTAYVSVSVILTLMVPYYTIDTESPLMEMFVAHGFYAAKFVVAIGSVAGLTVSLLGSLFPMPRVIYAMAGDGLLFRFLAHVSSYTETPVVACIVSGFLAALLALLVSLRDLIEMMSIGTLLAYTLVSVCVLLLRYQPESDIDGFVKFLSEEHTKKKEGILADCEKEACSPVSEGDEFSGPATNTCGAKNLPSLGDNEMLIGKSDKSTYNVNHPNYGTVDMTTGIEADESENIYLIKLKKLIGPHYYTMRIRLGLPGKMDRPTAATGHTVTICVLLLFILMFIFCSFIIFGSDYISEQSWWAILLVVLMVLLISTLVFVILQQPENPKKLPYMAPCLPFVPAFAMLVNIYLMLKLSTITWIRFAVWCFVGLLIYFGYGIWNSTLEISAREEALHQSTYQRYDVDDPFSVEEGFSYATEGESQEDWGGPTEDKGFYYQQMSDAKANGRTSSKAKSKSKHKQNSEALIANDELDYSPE
row,Variant,effect of a mutation on the interaction
1,P182L,disrupting interaction strength

# Variants of: B5
# Details: with sting_human STING1, Q86WV6
# sting_human STING1, Q86WV6, sequence (Q86WV6 whole entry): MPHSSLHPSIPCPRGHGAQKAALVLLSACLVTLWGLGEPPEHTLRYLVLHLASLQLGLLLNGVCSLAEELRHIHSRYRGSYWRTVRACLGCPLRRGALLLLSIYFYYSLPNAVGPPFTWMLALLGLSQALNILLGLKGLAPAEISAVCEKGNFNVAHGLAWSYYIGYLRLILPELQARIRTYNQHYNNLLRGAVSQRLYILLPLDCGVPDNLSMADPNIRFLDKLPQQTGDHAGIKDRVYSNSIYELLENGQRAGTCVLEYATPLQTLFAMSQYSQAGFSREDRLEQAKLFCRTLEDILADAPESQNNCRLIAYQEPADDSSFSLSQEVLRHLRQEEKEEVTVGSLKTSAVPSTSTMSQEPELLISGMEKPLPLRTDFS
row,Variant,effect of a mutation on the interaction
1,P182L,with no effect

# Variants of: B6
# Details: with stom_human STOM
row,Variant,effect of a mutation on the interaction
1,P182L,disrupting interaction strength

# Variants of: B7
# Details: with soat_human SLC10A6, Q3KNW5
row,Variant,effect of a mutation on the interaction
1,G144W,with no effect

# Variants of: B8
# Details: with blcap_human BLCAP
row,Variant,effect of a mutation on the interaction
1,G144W,with no effect

# Variants of: B9
# Details: with jagn1_human JAGN1, Q8N5M9
row,Variant,effect of a mutation on the interaction
1,P182L,with no effect

# Variants of: B10
# Details: with mf14b_human MFSD14B
row,Variant,effect of a mutation on the interaction
1,G144W,with no effect

# Variants of: B11
# Details: with cog4_human COG4, Q9H9E3
row,Variant,effect of a mutation on the interaction
1,V94D,with no effect

# Variants of: B12
# Details: with FAM174A
row,Variant,effect of a mutation on the interaction
1,G144W,with no effect
